# Results taken from the nanobody polyreactivity screen of Harvey et al. (2022).
# Experiment: yeast display, Sf9 membrane polyspecificity reagent, FACS + sequencing; frameworks hold sequencing errors
# Outline: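 Nanobodies came from a synthetic yeast display library in Saccharomyces cerevisiae BJ5465, induced with galactose for 36–48 hours and stained for 1 hour at 4 °C with 10% biotinylated, detergent-solubilized Sf9 membrane reagent. Cells were enriched on streptavidin microbeads and then FACS-sorted, with low and high (top ~1%) gates set on anti-HA fluorescence for expression and streptavidin fluorescence for reagent binding. Each polyreactivity label reflects the gate a clone came from. Genes were amplified by colony PCR, sequenced by MiSeq 2 × 250 and filtered by CDR length.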
row,Sequence,polyreactivity (PSR sort gate)
1,QVQLVESGGGLVHAGGILRLSCAASGSTFTPNAMGWYRQAPGKEREFVAAITYSGGTTYNADSVKGRFTISRDNAKKTVYLQRNRLKPEDTAVYYCAAVYFLLYYEAYYYWGQGTQVNVSS,low polyreactivity
2,QVQLVESGGGLVHAGGPLRLSCAASGFTFGEYAMGWYRPAPGKERELVAAITWSVGSTYYADSVKGRFTISRDNAKNTVYLEMNSLKPEDTAVYYCAAVLNWSRYGYWGQGTQVTVSS,low polyreactivity
3,QVQLVESGGGLVHAGGRLRLSCAASGRIFGRNAMGWYRPPPGKERELVAAITKSGGRTYYADSVKGRFSISRVNAKNNVYFQMICLKPEDNAVYYCNRIVTFGWQYDFDFWGQGTQVTVSS,high polyreactivity
4,QVQLVESGGGLVHAGGRLRLSCAAYGITFSSYAMGWYRQAPGKERELVAAITWSGTSTYYADSVKGRFTISRDNAKNTVYLQMNSLKPEYTAVSYCADEAGAPFSISHDYWGQGTQVTVSS,low polyreactivity
5,QVQLVESGGGLVHAGGSHRLSCAASGTMGCYRQAPGKEMELVAAISQSGGSTYYADSVKGRFTISRDNAKNTVYLQMNSLKPEATAVYYCAVDPRYGHPRRDYWGQGTQVTVSS,low polyreactivity
6,QVQLVESGGGLVHAGGSIRLSCSASRRIFGYNVMGWYRQAPGKERELVAAITSGDRTYYADSVKGRFTISRDNAKHTVYLQMNSLKPEDTAVYYCAARGDRRRYGSLMDSWGQGTQVTVSS,high polyreactivity
7,QVQLVESGGGLVHAGGSLRLSCAACGRIFGPYDMGWYRQAPGKEMELVAAISWSGGNTYYADSVKGRFTISLDNAKNTVYLQMNSLKPEDTAVYYCNADYYPSSYPYDYWGQGTQVTVSS,low polyreactivity
8,QVQLVESGGGLVHAGGSLRLSCAASGFIFAYYAMGWYRQAPGKERELVAAIDSAGRTTYADSVKGRFTISRDNAKNSVYLQMNSLKPEDTAVYYCAKFTPSVYKLSLQQGYDYWGQGNQVTVSS,high polyreactivity
9,QVQLVESGGGLVHAGGSLRLSCAASGFIFKRYPMGWNRPAHGKERELVAVITRSGGSTYYADSVKGRFTISRDNAKNTVYLQMNSLKPEDTAVYYCAAQGLLKFYWGQGTQVTVSS,high polyreactivity
10,QVQLVESGGGLVHAGGSLRLSCAASGFIFPGNAMGWYIQAPGKERDLVAAISNSGSRTYYADSVKGRFTISRDNAKNTVYLQMISLKPEDTAVYYCNADVHNRGWPYDYWGQGTQVTVSS,low polyreactivity
11,QVQLVESGGGLVHAGGSLRLSCAASGFIFWDYAMGWYRQAPGKERELVAAISDSGGDTYYADSVKGRFTISRDNAKNTVNLQMNRLKPEDTAVYYCAAYSPSSRFDRRGYWGQGNQVTVSS,low polyreactivity
12,QVQLVESGGGLVHAGGSLRLSCAASGFIFYGNAMGWYRQAPGKERELVAAITWSSGSTYYADSVKGRFTISRYNAKNTVYLQMNSLSPEDTAVYYSNSEWSAKRPYPSRYYFNLGYWGQGTQVTESS,high polyreactivity
13,QVQLVESGGGLVHAGGSLRLSCAASGFILYSYAMGWYRQAPGKERELVAAINSTGSTYYADSVKGRFTISRDNAKNTVYLQMNSLKPEDTAFYYCATDPWYQTDLSYDTPYYYWGQGKQVTVSS,low polyreactivity
14,QVQLVESGGGLVHAGGSLRLSCAASGFTFAGYAMGWYRQAPGKERELVAGIRSSGARTYYADSVKGRFTISRDNAKNTVYLQMNSLKPDDTAVYYCAKTDGFYGGYGYWGQCTQVTVSS,low polyreactivity
15,QVQLVESGGGLVHAGGSLRLSCAASGFTFGPYAMGWYRQAPRKERELVAAITGSGGITYYADSVKGRFTISRDNAKNTVYLQKNSLKPEDTAVYYCAAEYPYVYGTYSDSYTEYDYWGQGTQVTVSS,low polyreactivity
16,QVQLVESGGGLVHAGGSLRLSCAASGFTFRSYAMGWYRQAPGKERELVAAISWSGGSTYYADSVKGRYTISRDNAKNTVYLQMNSLKPEDTAVYYCAAVRVSKYDYWGQGTQVTVSS,high polyreactivity
17,QVQLVESGGGLVHAGGSLRLSCAASGFTIPYYAMGWYRQAPGKERELVAAIRISGGSTYYADSVKGRFTISRDNAKNTVYLQMNSLKPEDTAVYYCAADYRYRSRFYYWGQGTQVTVSS,low polyreactivity
18,QVQLVESGGGLVHAGGSLRLSCAASGGIFSWNTMGWYRQAPGKERELVAAINWSSGRTYYADSVKGRFTISRDNAKYTVYLQMNSLKPEDTAVYYCAAKYYGSRKYDYWGQGTQVTVSS,high polyreactivity
19,QVQLVESGGGLVHAGGSLRLSCAASGGIFYVNAMGWYRQAPGKERELVADIRYSGTSTYYADSVKGRFTISRDNAKNTVYLQMNSLKPEDTAVYYCAVDAWDTTHVYEQGAERDSWGQGTQVTVSS,low polyreactivity
20,QVQLVESGGGLVHAGGSLRLSCAASGIIFDDYAMGSYRQPPGKERELVAAISGRGGRTYYADSVKGRFTISRDNAKNTVYLQMNSLKPEDTAVYYCAGGGRVRYDYWGQGTQVTVSS,low polyreactivity
21,QVQLVESGGGLVHAGGSLRLSCAASGIIFGSYAMGWYRQAPGKERELVAAITRSGGRTYYADSVKGRFTISRDNAKNTVYLQMNSLKPEDTAVYYCAADRGYRGATGKYDSWGQGTEVTVSS,high polyreactivity

row,Sequence,polyreactivity (PSR sort gate)
1,QVQLVESGGGLVHAGGSLRLSCAASGIIFPYNLMGWYRQAPGKERELVADITRGAASTYYADSVKGRFTISRVNAKNTVYFQMNRLKTEDTAVYFCNADGTWRTYNFWGQGTQVTVSS,high polyreactivity
2,QVQLVESGGGLVHAGGSLRLSCAASGIISGWNGMGWYRQAPGKERELVASIDKNGSTYYADSVKGRCTISRDNAKNTVYLQMISLKPEDTAVYYCASDVRYRGNREDYWGQGTQVNVSS,low polyreactivity
3,QVQLVESGGGLVHAGGSLRLSCAASGITFKWNDMGWYRQAPGKEREFVAAITGSTGSTFYADSVKGRFTISRDNAKNTVYLQMNSLKPEDTAVYYCAAGPWFYYWGQGTQVTVSS,low polyreactivity
4,QVQLVESGGGLVHAGGSLRLSCAASGLIFRAYAMGWYRQAPGKERELVAAITSSSGSTYYADSVKGRFTISRDIAKNTVYLEMNSLKPEDTAVSYCNAYSTFGWYDYWGQGTQVTVSS,low polyreactivity
5,QVQLVESGGGLVHAGGSLRLSCAASGRIFDGNTMGWYRQAPGKERELVAAISGGGSTDYADSVKGRFTISRDNAKNTVYLQMNSLKPEDTAVYYCAATTGPVPLKGDYWGQGTQVTVSS,low polyreactivity
6,QVQLVESGGGLVHAGGSLRLSCAASGRIFKNYVMGWYRQAPGKERELVAGISSSGGSTYYADSVKGRFTISRYNAKNTVYLQMNSLKPEDTAVYYCAADYTFAYYNFKMDYWGQVTQVTVSS,low polyreactivity
7,QVQLVESGGGLVHAGGSLRLSCAASGRIFKSYAMGWYRQAPGKEREFVAAISTRSSSTYYADSVKGRFTISRDNAKNTVYLQMNSLKPEDTAVYYCAKVYQTLPYYYPGDYWGQGTQVNVSS,low polyreactivity
8,QVQLVESGGGLVHAGGSLRLSCAASGRIFLYYVMGWYRQAPGKERELVAAITSGGSTYYADSVKGRFTISRDNAKNTVYLQMNSLKPEDTAVYYCNKVSYYRNEYWGQGTQVTVSS,high polyreactivity
9,QVQLVESGGGLVHAGGSLRLSCAASGRTFCGYAMGRYRHAPGKERELVATNSYSSGSTYYADSVKGRFTISRDNAMNTVYLQMNSLTPEDTAVYYCAARIRYFYRYDYWGQGTQVTVSS,high polyreactivity
10,QVQLVESGGGLVHAGGSLRLSCAASGRTFKIYAMGWYRQAPGKERELVATISWRGGSTYYADSVKGRFTISRDNAKNTVYLQMNSLKPEDTAVYYCAKALYVAGSAYRAGYGVRYDYWGQGTQVTVSS,low polyreactivity
11,QVQLVESGGGLVHAGGSLRLSCAASGRTFPTNAMGWYRQSPGKDRELVAAISWSGGGTYYADSVKGRFTISRDNAKNTIYLQMNSLKPEDTAVYYCAADDTPDTIYGSDYWGQGTQVTVSS,low polyreactivity
12,QVQLVESGGGLVHAGGSLRLSCAASGRTFRDNVMGWSRQAPGKERELVAAISRSGGSTYYADSVKGRFTISRDNAKHTVYLQMNSQKPEDTAVYYSNAPYYVRSQYTFDYWGQGTQVTVSS,high polyreactivity
13,QVQLVESGGGLVHAGGSLRLSCAASGRTFRYYTMGWYRQAPGKEREFVAAISSTGGTYYADSVKGRFTISRDNAKNTVYLQMNSLKPEDTAVYYCAATFIQVVVNVQLYDYDYWGQGTQVTVSS,low polyreactivity
14,QVQLVESGGGLVHAGGSLRLSCAASGSIFFIYAMGGYRPAPGTERELVARISQGGASPYYADSVKGRFTISRDNAKTTVYLQMNSLKPEDTVVYYCAAGYTNTRLRPKGYGYYYWGQGTQVTVSW,high polyreactivity
15,QVQLVESGGGLVHAGGSLRLSCAASGSIFFQYGMGWYRHAPGKEREYVAAISVSGGSTYYADSVKGRFTISRDNAKNSVYLQMNSLKPEDTAVYYCAADGSTDYVYSPPIDEYDFWGQGTQVTVSS,low polyreactivity
16,QVQLVESGGGLVHAGGSLRLSCAASGSIFGYYTMGWYRQAPGKERELDAAITSGGSTNYADSVKGRFTISRDNAKNTVYLEMNSLKPEDTAVYYCAKVSYYPWRYDDWGQGTKVTVSS,low polyreactivity
17,QVQLVESGGGLVHAGGSLRLSCAASGSIFKPYVMGWYRQAPGKERELVAAITTSGVRTYYADSVKGRFTISRDNAKNTVYLQMNSLKPEDTAVYYCATRRWSWPQFRTGDYWGQGTQVTVSS,high polyreactivity
18,QVQLVESGGGLVHAGGSLRLSCAASGSIFNYYAMGWYRQAPGKERELVAAISYGTGSTYYADSVKWRFTISRDNAKNTDYLQMNSLKPEDTAVYYCAADTRYGYGYWGQGTQVTVSS,high polyreactivity
19,QVQLVESGGGLVHAGGSLRLSCAASGSIFPDNTMGWYRQAPGKERELVAAIDGRGGTTYYADSVKGRFTISRDNAKNTVYLQMNSLKPEDTAVYYCARDIGHSARYDYWGQGTQVTVSS,low polyreactivity
20,QVQLVESGGGLVHAGGSLRLSCAASGSIFTGYAMGWYRQAPGKERELVAAIDYRSGSTYYADSVKGRFTISRDNAKNTVYLQMNSLKPEDTAVYYCAAPAGWGFDEAFGYGYWGQGTQVTVSS,low polyreactivity
